Test [1] addresses T1, human CD226, full length, expressed on transfected Expi293 cells (human) (UniProt Q15762).
T1 sequence: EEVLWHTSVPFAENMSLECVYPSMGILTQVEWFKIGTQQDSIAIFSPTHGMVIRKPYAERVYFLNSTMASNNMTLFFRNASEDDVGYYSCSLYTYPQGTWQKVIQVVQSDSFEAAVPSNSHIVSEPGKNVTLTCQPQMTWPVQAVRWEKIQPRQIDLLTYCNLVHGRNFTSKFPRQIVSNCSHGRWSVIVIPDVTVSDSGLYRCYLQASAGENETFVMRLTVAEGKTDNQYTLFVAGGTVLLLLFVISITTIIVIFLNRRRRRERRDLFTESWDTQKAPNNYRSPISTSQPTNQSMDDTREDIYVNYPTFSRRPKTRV
In words: flow cytometry, Expi293 cells transfected with full-length human CD226. Background: In flow cytometry, cells or beads pass a laser one at a time.

Test [2] deals with PD-L1 (human) (UniProt Q9NZQ7). In words: flow cytometry; MFI vs m21.
Test [3] deals with CTLA4 (human) (UniProt P16410). Nature of the test: flow cytometry; MFI vs m21.
Test [4] deals with PD-L1 (human) (UniProt Q9NZQ7). In words: flow cytometry, transfected cells.
Test [5] deals with CTLA4 (human) (UniProt P16410). Nature of the test: flow cytometry, transfected cells.
The target of test [6] is PD-L1 (human) (UniProt Q9NZQ7). In words: flow cytometry, transfected cells; column head doubtful.
For test [7], the target named is CTLA4 (human) (UniProt P16410). The test is described as above.
The target in a further test is CD28 (human) (UniProt P10747). In words: flow cytometry, transfected cells.
Another test has as its target human ICOS (human). In words: flow cytometry, transfected cells.

Among the data in patent US20200040059A1 are MFI and WT parental MFI ratio values, retold here.

Domain 1: ICOSL WT / Domain 2: CD80 WT / Fc (Fc fusion), sequence (chain): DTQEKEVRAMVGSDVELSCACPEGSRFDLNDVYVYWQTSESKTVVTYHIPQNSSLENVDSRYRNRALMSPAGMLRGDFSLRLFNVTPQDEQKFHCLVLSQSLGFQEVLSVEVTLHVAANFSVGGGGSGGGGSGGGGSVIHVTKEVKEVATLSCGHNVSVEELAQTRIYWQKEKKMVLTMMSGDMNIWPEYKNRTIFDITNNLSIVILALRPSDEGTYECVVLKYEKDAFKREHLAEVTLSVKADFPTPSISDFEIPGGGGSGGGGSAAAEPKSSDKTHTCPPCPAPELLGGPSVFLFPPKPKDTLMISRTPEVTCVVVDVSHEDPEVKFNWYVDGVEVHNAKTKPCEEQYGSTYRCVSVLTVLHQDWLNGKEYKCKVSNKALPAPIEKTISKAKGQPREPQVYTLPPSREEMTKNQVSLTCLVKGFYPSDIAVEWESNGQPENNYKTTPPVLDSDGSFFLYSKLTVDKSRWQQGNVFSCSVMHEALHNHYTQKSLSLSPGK
PD-L1 (human), sequence (Q9NZQ7 19-290 limits assumed): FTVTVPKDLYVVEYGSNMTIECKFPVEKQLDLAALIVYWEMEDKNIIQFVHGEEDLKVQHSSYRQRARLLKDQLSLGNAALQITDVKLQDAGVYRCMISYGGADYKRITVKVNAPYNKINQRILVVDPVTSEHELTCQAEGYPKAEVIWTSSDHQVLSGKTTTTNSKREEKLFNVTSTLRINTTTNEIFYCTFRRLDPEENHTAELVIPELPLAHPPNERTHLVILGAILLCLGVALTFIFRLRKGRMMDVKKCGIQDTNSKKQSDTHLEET
CTLA4 (human), sequence (P16410 36-223 limits assumed): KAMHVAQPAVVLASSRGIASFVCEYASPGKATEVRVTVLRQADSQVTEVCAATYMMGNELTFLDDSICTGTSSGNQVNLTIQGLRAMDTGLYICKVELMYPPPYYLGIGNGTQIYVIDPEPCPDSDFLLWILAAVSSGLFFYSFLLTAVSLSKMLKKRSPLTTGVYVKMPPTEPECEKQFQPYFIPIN
human ICOS (human), sequence (Q9Y6W8 whole entry): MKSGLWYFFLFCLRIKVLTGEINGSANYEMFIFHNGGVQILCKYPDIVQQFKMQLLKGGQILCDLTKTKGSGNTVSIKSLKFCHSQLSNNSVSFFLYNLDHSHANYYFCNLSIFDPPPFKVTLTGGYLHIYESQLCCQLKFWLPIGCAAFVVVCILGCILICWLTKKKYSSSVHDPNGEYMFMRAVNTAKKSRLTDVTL

“CD112 variant A95V, A112I IgV-Fc fusion (from UniProt Q92692 32-156)” displayed an MFI in test [1] of 51900 MFI.
On to “Domain 1: CD80 R29V/Y31F/K36G/M38L/M43Q/E81R/V83I/L85I/K89R/D90L/A91E/F92N/K93Q/R94G / Domain 2: CD80 E88D/K89R/D90K/A91G/F92Y/K93R / Fc (Fc fusion)”, for which the WT parental MFI ratio with PD-L1 (human) [2] was found to be 0.31; with CTLA4 (human) [3], 0.42. The MFI in the test with PD-L1 (human) [4] was determined as 1930; in the test with CTLA4 (human) [5] it was 1990.
For the substance “Domain 1: ICOSL WT / Domain 2: CD80 WT / Fc (Fc fusion)”, the MFI with PD-L1 (human) [6] is 3000; with CTLA4 (human) [7], 14400; with CD28 (human), 3000; with human ICOS (human), 14400; with PD-L1 (human) [4] it was 2970.
